# Measurements taken from patent US20220011297A1, “METHOD FOR PREDICTING EFFECT OF IMMUNE CHECKPOINT INHIBITOR” (NAGASAKI UNIVERSITY, priority 2018, published 2022).
# System: lung cancer patients
# Experiment: Multicenter study of nivolumab in lung cancer patients: adverse events (interstitial pneumonia)
# Excerpt: Multicenter study ([sequence] University Hospital, Nagasaki Genbaku Hospital) [Subjects] Lung cancer patients [Selection criteria]
# Employed were patients who had been histologically confirmed to have lung cancer through computed tomography (any T, any N, and M1, stage IV), and
# who were 20 to 75 years old with performance status (PS) of 0 and retaining the functions of main tissues, met the study criteria of our institution, and voluntarily submitted a consent form to participate in the study after receiving explanation on the characteristics of the study.
# This blood collection is performed concomitantly with regular blood collection during hospitalization, and no additional puncture is performed for the blood collection.
substance,measurement,setting,value
nivolumab: human-type anti-PD-1 monoclonal antibody,"interstitial pneumonia with DAD (diffuse alveolar damage), acute exacerbation","13 lung cancer patients given nivolumab, other two cases OP",TR01 and TR02 were presenting with DAD
same,death,"among DAD cases, in spite of discontinuation of administration",one case resulted in death
